# Results: PMC5360024, “The Alzheimer’s disease risk factors apolipoprotein E and TREM2 are linked in a receptor signaling pathway” (Journal of Neuroinflammation, 2017)
# T1: Recombinant human TREM2 (human, UniProt Q9NZC2 19-174)
# T1 construct: Triggering receptor expressed on myeloid cells 2 (TREM2), human, recombinant; As I recall, this catalogue item is the extracellular domain with a C-terminal His tag; also called triggering receptor expressed on myeloid cells 2; hTREM2; source: bought: Sino Biological Inc. (#11084-H08H)
# T1 sequence (looked up): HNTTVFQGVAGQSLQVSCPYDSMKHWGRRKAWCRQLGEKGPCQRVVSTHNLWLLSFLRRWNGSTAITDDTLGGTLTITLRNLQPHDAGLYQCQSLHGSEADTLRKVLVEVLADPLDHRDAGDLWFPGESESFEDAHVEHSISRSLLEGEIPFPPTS
# Experiments:
# Conditions in all cases: both partners purified
# Recombinant human TREM2 [1] = molecular target: T1, Recombinant human TREM2; assay: ELISA; competition: human TREM2 (40 nM) coated; 6 nM ApoE ε2 with 0-6 μM ApoE-mim149 or scrambled peptide, 1 h at RT; bound full-length ApoE detected with polyclonal anti-ApoE; one site-fit Ki
# Recombinant human TREM2 [2] = molecular target: T1, Recombinant human TREM2; assay: ELISA; competition: human TREM2 (40 nM) coated; 6 nM ApoE ε3 with 0-6 μM ApoE-mim149 or scrambled peptide, 1 h at RT; bound full-length ApoE detected with polyclonal anti-ApoE; one site-fit Ki
# Recombinant human TREM2 [3] = molecular target: T1, Recombinant human TREM2; assay: ELISA; competition: human TREM2 (40 nM) coated; 6 nM ApoE ε4 with 0-6 μM ApoE-mim149 or scrambled peptide, 1 h at RT; bound full-length ApoE detected with polyclonal anti-ApoE; one site-fit Ki
binder,measurement,setting,value
"Ac-TEELRVRLASHLRKLRKRLL-NH2 (also called ApoE-mim149; source: synthetic peptide, bought: GenScript) [ApoE-mimetic peptide corresponding to amino acids 130–149]",Ki,Recombinant human TREM2 [1],827 nM
same,Ki,Recombinant human TREM2 [2],475 nM
same,Ki,Recombinant human TREM2 [3],1540 nM
